The DeepSol protein solubility set

Test: soluble on expression in E. coli; label from the status in PepcDB or PDB records

Row | Sequence | soluble on expression in E. coli
1 | MKEAYAQELIDYYNQSTNDVLKRTASISENEKPRVLFLVYDQRKNSYWTPGGEFYQNNLITMAGGKTVSSDLPTGKAQINVEQAASWNPDVIITSAHTMEYPSTKVKEDVLTDEGWKEINAVKSGNVYAMPFDGESWDTLGSKYVLGLYWTAKTLHPDMYLEHHHHHH | soluble
2 | MGSDKIHHHHHHMSKKIIDEVIDILEDKKYTYTMIEYPEHNRKSVDIVLNSKEPTLIRVSEDKITKEEISDLKKIAVSTLTASLVVTNEEEEDIVSVKADNVFAISPEGFKKVINGEKIFLYRTRGGIFIKIRNYILKHKREEMGYSIGDVAKFLGVSRKAIYDYEKGDSDVSLEVAEKLIDLFGDDIIGDVIWDSIKSKKEILEEGVAEFSPENFKAKLIYKLKESGLNALSLKLTAADLIVKDSDNNRYLVTIENKDYNKSMKKFYEAKKLASYTKSELVIIIRTSKMLKECEDLGYKTYEENDIHSLIDEIKGSNGRQG | not soluble
3 | MADPNWAYAPPTNYYADHSIAKPIMISGGHPSQDQGHSPKSESFGQSVTTAFNGMVDNLVGSPSSSVQQRNYFTTTPFPISRSPNDRNDDKIMGNGSYGVPIPIPQDGVPQGTPDFQMTPFLQQGGHLIGGSPNGPVQVSGNWYSGGAGIFSTMQQADPSNGMPGMAAEFVNNENGMPGPNGMHQQAMISGSPPFPYQNMMNLTTSFGAMGLGPQQIQQRDPQMFQQPILHEPIQGMAQNGFGQQVFFTQMQNQQHPQGQAQQQLQQLAQQHQQQQNSQQFFGQGPNGMGNGGVMNDWSQRSFGMPQQQAQQNGLPPNFSQNPPRRRGPEDPNGQTPKTLQDIKNNVIEFAKDQHGSRFIQQKLERASLRDKAAIFTPVLENAEELMTDVFGNYVIQKFFEFGNNEQRNQLVGTIRGNVMKLALQMYGCRVIQKALEYVEEKYQHEILGEMEGQVLKCVKDQNGNHVIQKVIERVEPERLQFIIDAFTKNNSDNVYTLSVHPYGCRVIQRVLEYCNEEQKQPVLDALQIHLKQLVLDQYGNYVIQHVIEHGSPSDKEQIVQDVISDDLLKFAQHKFASNVIEKCLTFGGHAERNLIIDKVCGDPNDPSPPLLQMMKDPFANYVVQKMLDVADPQHRKKITLTIKPHIATLRKYNFGKHILLKLEKYFAKQAPANSSNSSSNDQIYEHSPFDIPLGADFSNHPF | not soluble
4 | GMPTLEMPVAAVLDSTVGSSEALPDFTSDRYKDAYSRINAIVIEGEQEAHDNYIAIGTLLPDHVEELKRLAKMEMRHKKGFTACGKNLGVEADMDFAREFFAPLRDNFQTALGQGKTPTCLLIQALLIEAFAISAYHTYIPVSDPFARKITEGVVKDEYTHLNYGEAWLKANLESCREELLEANRENLPLIRRMLDQVAGDAAVLQMDKEDLIEDFLIAYQESLTEIGFNTREITRMAAAALVS | soluble
5 | MNRSRDKVRCALNHQNAGSIPVDFGSTAVTGIHCRIVEALRNYYGLAPRPVKIVDAFQMLGEIDAELAEKIGVDCIGIGGPKDIFDLDTTRMHEQTTPWGQRVLVPEAMDLTPDMRGDVYVYAGGDQNYPPSAVMPKGCYFINAIERQQPIEEDRLDPEDNVEEFGLLTENDLAYYCAEADKAYQTGRAVVASFGGTALGDVAFVPGMGLKQPKGIRSVVEWYMSTAMRQDYLHQVFEKEIDIAIANYEKLWAALGDKIDVVLTCGTDFGSQESQFCSIDTFRELWLPHYRRMNDWIHQHTTWKIFKHSCGAIIPILPGLIEAGFDIINPVQINAKDMDSRRLKEEFGSQLTFWGGGVDTQKILPFGTPDEIRRHVMGQCEILGRDGGFVFNAVHNVQANVPVDNVVAMFDALKDISLEHHHHHH | not soluble
6 | MLRRQMSFNGKSDMGILYLVPTPIGNLEDMTFRAIDTLKSVDAIAAEDTRQTKKLCHVYEIETPLVSYHEHNKESSGHKIIEWLKSGKNIALVSDAGLPTISDPGAEIVKDFTDIGGYVVPLPGANAALTALIASGIVPQPFFFYGFLNRQKKEKKKELEALKKRQETIIFYEAPHRLKETLSAMAEILGDREIAVTRELTKKYEEFIRGTISEVIGWANEDQIRGEFCLVVEGSNNEEVDEEEQWWETLTAKEHVEHYISKGATSKEAIKKAAVDRNVPKREVYDAYHIKQLEHHHHHH | not soluble
7 | MGSDKIHHHHHHMIVIEDVYKRYKTDHGPGKWILQGVNLTIPRNVNVGLIGSNGAGKSTLLRIIGGIDHPNKGKVERRCRLSWPMGQGGLEPTLTGRQNAKFVCRLHGHQDDLPERLIFIQDFSGLKDAFDEPVNTYSSGMRSRLQFAMSLAFDFDIYISDEVTAAGDAAFRDKAAAAFKGMTNRAGLIMVAHSESTLRQFCEAGILLYQGKAQWFDKIEEAFKAYKDTVQK | not soluble
8 | MNANLNMDVIRSALLAGEVDDAYKVIFNARKKLELYKSTTGDSRYDPYYEFISILDDVVRGRRSWKDLKAYIDGNMDALSKFIDPDFLRSFPYYLFFSIDRYNVRFPYFDGKRCDDR | not soluble
9 | MGSDKIHHHHHHLSFLYVYERSAKIGVQENCVVVESKKENLKRILPIEGVENVIIFGDASLSSNCVKQFMERDINLTWLSSRGKFYGRLESTRNVNIYRQRKQFACGEDDEFCLALAKRIILAKVKNQITILRRYRRNRPEKSVQKIIDAMAKLLPIMERVHNKDELMGHEGMAARYYYQGLAELVEPDFAFSGRNRQPPRDPFNSLLSFAYTLLMYDLYTAAVNRGLNPYASFLHSIRRGHPALCSDLMEEWRAILADSLALYVTSKGIIKRENFEKPNEEGGVYLDGIGSKAFIAEYEKKVRGRSNYLAYVDYSVSFRRAMEMQCQRLAKAIEEGDPSIYQPVVIR | not soluble
10 | MHHHHHHSSGRENLYFQGSEREASRLDKFKQLLAGPNTDLEELRRLSWSGIPKPVRPMTWKLLSGYLPANVDRRPATLQRKQKEYFAFIEHYYDSRNDEVHQDTYRQIHIDIPRMSPEALILQPKVTEIFERILFIWAIRHPASGYVQGINDLVTPFFVVFICEYIEAEEVDTVDVSGVPAEVLCNIEADTYWCMSKLLDGIQDNYTFAQPGIQMKVKMLEELVSRIDEQVHRHLDQHEVRYLQFAFRWMNNLLMREVPLRCTIRLWDTYQSEPDGFSHFHLYVCAAFLVRWRKEILEEKDFQELLLFLQNLPTAHWDDEDISLLLAEAYRLKFAFADAPNHYKK | soluble
11 | ISGGSSISMMYKYCSRLPHDEFFQPKPEFQFKPVDEFGGTICRITLPANAPISEIESSLLPSTEAAKKDACLKAVHELHNLGVLNDFLLPDSKDEIEDELSD | soluble
12 | MVVGGFGVGKTTMVRSVSEIRPLNTEETMTQAGEAVDDISEVRGKSATTVAFDFGRISLDARNVLYLFGAPGQERFWFLWDRLFSGTLGAVVLVDTRRIDDSWYAIDRLEHHGTPFIVACNDFGGPEHSPEAVREALDLDPRVPLVSCDARSRQSSKQVLITLVEHLQAHYAGPTARPRQEFALEHHHHHH | not soluble
13 | MSDKPHRIVIVGGGAGGLELATALGNKYGKSDAVRVTLVDRSRTHIWKPLLHAIAAGSLRRSQHELNYLAQAHWHGFHYRLGEMNGLDRARKVIKLAPVIDDEGREINPESELAYDTLVIAIGSVTNDFGTPGARDHAVPLETPEQASRFNKRMVNACLRAQHQHAPIEPGQLHVAIIGAGATGTELAAELHHTAREIIAYGLDKIDPEHDLKIVLIEAAPRILPALPPRISDATLKLLLDLGVEVRTGARVAEVLDHAVRLADGEVIPSELVVWAAGVRAPDFLEGIDGLDTNRINQLVVRPTLQTTRDDNVFGMGDCAACAIPGYENGVPPRAQAAHQEAEFMLEQIEKRLKGEPLGEFRYRDLGSLVSLGKYSAVGNLMGSLVGKSFLIEGYFARFMYRSLYKMHEAALYGRGRTLLSVLSGSTRPTPTVKLHLEHHHHHH | not soluble
14 | MSLELSPTYQTERFTKFSDTLKEFKIEQNNEQNPIDPFNIIREFRSAAGQLALDLANSGDESNVISSKDWELEARFWHLVELLLVFRNADLDLDEMELHPYNSRGLFEKKLMQDNKQLYQIWIVMVWLKENTYVMERPKNVPTSKWLNSITSGGLKSCDLDFPLRENTNVLDVKDKEEDHIFFKYIYELILAGAIDEALEEAKLSDNISICMILCGIQEYLNPVIDTQIANEFNTQQGIKKHSLWRRTVYSLSQQAGLDPYERAIYSYLSGAIPNQEVLQYSDWESDLHIHLNQILQTEIENYLLENNQVGTDELILPLPSHALTVQEVLNRVASRHPSESEHPIRVLMASVILDSLPSVIHSSVEMLLDVVKGTEASNDEGHHHHHH | not soluble
15 | MIWIVGSGTCRGQTTERAKEIIERAEVIYGSRRALELAGVVDDSRARILRSFKGDEIRRIMEEGREREVAVISTGDPMVAGLGRVLREIAEDVEIKIEPAISSVQVALARLKVDLSEVAVVDCHAKDFDAELTELLKYRHLLILADSHFPLERLGKRRVVLLENLCMEGERIREGNADSIELESDYTIIFVEREVME | soluble
16 | SLSVVAPAVYVGTWHKYNCGSIAGRWFDLTTFDDERDFFAACRALHQDEADPELMFQDYEGFPGNMASECHINWAWVEGFRQARDEGCEEAYRLWVEDTGETDFDTFRDAWWGEADSEEAFAVEFASDTGLLADVPETVALYFDYEAYARDLFLDSFTFIDGHVFRR | soluble
17 | MGSDKIHHHHHHMPTPIKIGVSSCLLGEKVRYDGGHKHDRYITDTLGRFFEFVSVCPEAECGMPIPREAMRLEADGGEVRLVTSRSRVDKTEQMLDFCRRKVLELESEDLCGFIFKKDSPSSGLFNVKLYRRGMPTKAGRGLFADAVTKHFPLLPVEEEGRLHDMGLREHFIERVFAFRRWKDLLLGGKSLGRLVAFHADHKLLIMAHSPEVYREMGALVARGKELGCDDLFACYQELFMKALSLHATVRKNTNVLQHIAGYFKKQLTREEKAELQEVIGEYHRHLVPLIVPVTLLRHYVKKYGQEYLLKQVYLSPTPLELMLRNHV | not soluble
18 | MEVEYMNFNELNLSDNILNAIRNKGFEKPTDIQMKVIPLFLNDEYNIVAQARTGSGKTASFAIPLIELVNENNGIEAIILTPTRELAIQVADEIESLKGNKNLKIAKIYGGKAIYPQIKALKNANIVVGTPGRILDHINRGTLNLKNVKYFILDEADEMLNMGFIKDVEKILNACNKDKRILLFSATMPREILNLAKKYMGDYSFIKAKINANIEQSYVEVNENERFEALCRLLKNKEFYGLVFCKTKRDTKELASMLRDIGFKAGAIHGDLSQSQREKVIRLFKQKKIRILIATDVMSRGIDVNDLNCVINYHLPQNPESYMHRIGRTGRAGKKGKAISIINRREYKKLRYIERAMKLKIKKLKFG | soluble
19 | MGALVIRGIRNFNLENRAEREISKMKPSVAPRHPSTNSLLREQISLYPEVKGEIARKDEKLLSFLKDVYVDSKDPVSSLQVKAAETCQEPKEFRLPKDHHFDMINIKSIPKGKISIVEALTLLNNHKLFPETWTAEKIMQEYQLEQKDVNSLLKYFVTFEVEIFPPEDKKAIRSK | soluble
20 | MIIVKNHKFKLDLLQNEANKEKFEGNTACSTAAYTLVREDASTGLTYTADISKVGNQISGEPAQRIKIREHRRIPKFDLPNLKVSKVYKLPLEASYAKGLLLLLIFCFGLSGCNTSKRLPYSHKYSYKELSKDDPHNLTYKGHYKVGKNYKIKGKTYKPHNPKSFTETGYASWYGGLKDGFHGKKTANGDRFNRNLLTAAHKTLPLPCLVKVTNKANNKAVILMVNDRGPFKKNRIIDVSQRAAEILAFKNQGITKVKIEYLPNETEKFLKNINLKKPQSKTLAKNSKKSSSNKVTNNNKCSVNCHIKLINLKYKLAVTP | soluble
